Results: US20250368745A1 (published 2025)

T1: human IL-18BP (human, UniProt O95998 31-194)
T1 construct: UniProt printed as 095998; also called hIL-18BP
T1 sequence: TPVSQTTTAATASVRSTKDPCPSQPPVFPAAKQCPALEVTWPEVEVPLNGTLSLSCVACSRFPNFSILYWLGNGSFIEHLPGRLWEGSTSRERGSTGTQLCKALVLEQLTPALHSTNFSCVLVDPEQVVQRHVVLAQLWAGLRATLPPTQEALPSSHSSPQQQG

B1: SA301a HC-G55Y (antibody, name in Kabat numbering, V domains shown)
VH: QVQLQESGPGLVKPSQTLSLTCTVSGYSITSDYNSHWIRQPPGKGLEWIGYIHYSYSTNYNPSLKSRVTISRDTSKNQFSLKLSSVTAADTAVYYCARNYGSIYVNYFDYWGQGTLVTVSS
VL: EIVLTQSPATLSLSPGERATLSCSASSSVSYMYWYQQKPGQAPRPLIYRTSNLASGIPARFSGSGSGTDFTLTISSLEPEDFAVYYCQQYHSYPTFGGGTKVEIK
notes: IgG1 kappa
B2: SA301a HC-N58H (antibody, name in Kabat numbering, V domains shown)
VH: QVQLQESGPGLVKPSQTLSLTCTVSGYSITSDYNSHWIRQPPGKGLEWIGYIHYSGSTHYNPSLKSRVTISRDTSKNQFSLKLSSVTAADTAVYYCARNYGSIYVNYFDYWGQGTLVTVSS
VL: EIVLTQSPATLSLSPGERATLSCSASSSVSYMYWYQQKPGQAPRPLIYRTSNLASGIPARFSGSGSGTDFTLTISSLEPEDFAVYYCQQYHSYPTFGGGTKVEIK
notes: IgG1 kappa
B3: SA301a HC-N58K (antibody, name in Kabat numbering, V domains shown)
VH: QVQLQESGPGLVKPSQTLSLTCTVSGYSITSDYNSHWIRQPPGKGLEWIGYIHYSGSTKYNPSLKSRVTISRDTSKNQFSLKLSSVTAADTAVYYCARNYGSIYVNYFDYWGQGTLVTVSS
VL: EIVLTQSPATLSLSPGERATLSCSASSSVSYMYWYQQKPGQAPRPLIYRTSNLASGIPARFSGSGSGTDFTLTISSLEPEDFAVYYCQQYHSYPTFGGGTKVEIK
notes: IgG1 kappa
B4: SA301a HC-S56A (antibody, name in Kabat numbering, V domains shown)
VH: QVQLQESGPGLVKPSQTLSLTCTVSGYSITSDYNSHWIRQPPGKGLEWIGYIHYSGATNYNPSLKSRVTISRDTSKNQFSLKLSSVTAADTAVYYCARNYGSIYVNYFDYWGQGTLVTVSS
VL: EIVLTQSPATLSLSPGERATLSCSASSSVSYMYWYQQKPGQAPRPLIYRTSNLASGIPARFSGSGSGTDFTLTISSLEPEDFAVYYCQQYHSYPTFGGGTKVEIK
notes: IgG1 kappa
B5: SA301a HC-N58I (antibody, name in Kabat numbering, V domains shown)
VH: QVQLQESGPGLVKPSQTLSLTCTVSGYSITSDYNSHWIRQPPGKGLEWIGYIHYSGSTIYNPSLKSRVTISRDTSKNQFSLKLSSVTAADTAVYYCARNYGSIYVNYFDYWGQGTLVTVSS
VL: EIVLTQSPATLSLSPGERATLSCSASSSVSYMYWYQQKPGQAPRPLIYRTSNLASGIPARFSGSGSGTDFTLTISSLEPEDFAVYYCQQYHSYPTFGGGTKVEIK
notes: IgG1 kappa
B6: SA301a HC-N58D (antibody, name in Kabat numbering, V domains shown)
VH: QVQLQESGPGLVKPSQTLSLTCTVSGYSITSDYNSHWIRQPPGKGLEWIGYIHYSGSTDYNPSLKSRVTISRDTSKNQFSLKLSSVTAADTAVYYCARNYGSIYVNYFDYWGQGTLVTVSS
VL: EIVLTQSPATLSLSPGERATLSCSASSSVSYMYWYQQKPGQAPRPLIYRTSNLASGIPARFSGSGSGTDFTLTISSLEPEDFAVYYCQQYHSYPTFGGGTKVEIK
notes: IgG1 kappa
B7: SA301a HC-N58T (antibody, name in Kabat numbering, V domains shown)
VH: QVQLQESGPGLVKPSQTLSLTCTVSGYSITSDYNSHWIRQPPGKGLEWIGYIHYSGSTTYNPSLKSRVTISRDTSKNQFSLKLSSVTAADTAVYYCARNYGSIYVNYFDYWGQGTLVTVSS
VL: EIVLTQSPATLSLSPGERATLSCSASSSVSYMYWYQQKPGQAPRPLIYRTSNLASGIPARFSGSGSGTDFTLTISSLEPEDFAVYYCQQYHSYPTFGGGTKVEIK
notes: IgG1 kappa
B8: SA301a HC-N58E (antibody, name in Kabat numbering, V domains shown)
VH: QVQLQESGPGLVKPSQTLSLTCTVSGYSITSDYNSHWIRQPPGKGLEWIGYIHYSGSTEYNPSLKSRVTISRDTSKNQFSLKLSSVTAADTAVYYCARNYGSIYVNYFDYWGQGTLVTVSS
VL: EIVLTQSPATLSLSPGERATLSCSASSSVSYMYWYQQKPGQAPRPLIYRTSNLASGIPARFSGSGSGTDFTLTISSLEPEDFAVYYCQQYHSYPTFGGGTKVEIK
notes: IgG1 kappa
B9: SA301a HC-S54A (antibody, name in Kabat numbering, V domains shown)
VH: QVQLQESGPGLVKPSQTLSLTCTVSGYSITSDYNSHWIRQPPGKGLEWIGYIHYAGSTNYNPSLKSRVTISRDTSKNQFSLKLSSVTAADTAVYYCARNYGSIYVNYFDYWGQGTLVTVSS
VL: EIVLTQSPATLSLSPGERATLSCSASSSVSYMYWYQQKPGQAPRPLIYRTSNLASGIPARFSGSGSGTDFTLTISSLEPEDFAVYYCQQYHSYPTFGGGTKVEIK
notes: IgG1 kappa
B10: SA301a HC-N58S (antibody, name in Kabat numbering, V domains shown)
VH: QVQLQESGPGLVKPSQTLSLTCTVSGYSITSDYNSHWIRQPPGKGLEWIGYIHYSGSTSYNPSLKSRVTISRDTSKNQFSLKLSSVTAADTAVYYCARNYGSIYVNYFDYWGQGTLVTVSS
VL: EIVLTQSPATLSLSPGERATLSCSASSSVSYMYWYQQKPGQAPRPLIYRTSNLASGIPARFSGSGSGTDFTLTISSLEPEDFAVYYCQQYHSYPTFGGGTKVEIK
notes: IgG1 kappa
B11: SA301a HC-N58R (antibody, name in Kabat numbering, V domains shown)
VH: QVQLQESGPGLVKPSQTLSLTCTVSGYSITSDYNSHWIRQPPGKGLEWIGYIHYSGSTRYNPSLKSRVTISRDTSKNQFSLKLSSVTAADTAVYYCARNYGSIYVNYFDYWGQGTLVTVSS
VL: EIVLTQSPATLSLSPGERATLSCSASSSVSYMYWYQQKPGQAPRPLIYRTSNLASGIPARFSGSGSGTDFTLTISSLEPEDFAVYYCQQYHSYPTFGGGTKVEIK
notes: IgG1 kappa
B12: SA301a HC-S54F (antibody, name in Kabat numbering, V domains shown)
VH: QVQLQESGPGLVKPSQTLSLTCTVSGYSITSDYNSHWIRQPPGKGLEWIGYIHYFGSTNYNPSLKSRVTISRDTSKNQFSLKLSSVTAADTAVYYCARNYGSIYVNYFDYWGQGTLVTVSS
VL: EIVLTQSPATLSLSPGERATLSCSASSSVSYMYWYQQKPGQAPRPLIYRTSNLASGIPARFSGSGSGTDFTLTISSLEPEDFAVYYCQQYHSYPTFGGGTKVEIK
notes: IgG1 kappa
B13: SA301a HC-N58M (antibody, name in Kabat numbering, V domains shown)
VH: QVQLQESGPGLVKPSQTLSLTCTVSGYSITSDYNSHWIRQPPGKGLEWIGYIHYSGSTMYNPSLKSRVTISRDTSKNQFSLKLSSVTAADTAVYYCARNYGSIYVNYFDYWGQGTLVTVSS
VL: EIVLTQSPATLSLSPGERATLSCSASSSVSYMYWYQQKPGQAPRPLIYRTSNLASGIPARFSGSGSGTDFTLTISSLEPEDFAVYYCQQYHSYPTFGGGTKVEIK
notes: IgG1 kappa
B14: SA301a HC-N58G (antibody, name in Kabat numbering, V domains shown)
VH: QVQLQESGPGLVKPSQTLSLTCTVSGYSITSDYNSHWIRQPPGKGLEWIGYIHYSGSTGYNPSLKSRVTISRDTSKNQFSLKLSSVTAADTAVYYCARNYGSIYVNYFDYWGQGTLVTVSS
VL: EIVLTQSPATLSLSPGERATLSCSASSSVSYMYWYQQKPGQAPRPLIYRTSNLASGIPARFSGSGSGTDFTLTISSLEPEDFAVYYCQQYHSYPTFGGGTKVEIK
notes: IgG1 kappa
B15: SA301a HC-N58P (antibody, name in Kabat numbering, V domains shown)
VH: QVQLQESGPGLVKPSQTLSLTCTVSGYSITSDYNSHWIRQPPGKGLEWIGYIHYSGSTPYNPSLKSRVTISRDTSKNQFSLKLSSVTAADTAVYYCARNYGSIYVNYFDYWGQGTLVTVSS
VL: EIVLTQSPATLSLSPGERATLSCSASSSVSYMYWYQQKPGQAPRPLIYRTSNLASGIPARFSGSGSGTDFTLTISSLEPEDFAVYYCQQYHSYPTFGGGTKVEIK
notes: IgG1 kappa
B16: SA301a HC-N58A (antibody, name in Kabat numbering, V domains shown)
VH: QVQLQESGPGLVKPSQTLSLTCTVSGYSITSDYNSHWIRQPPGKGLEWIGYIHYSGSTAYNPSLKSRVTISRDTSKNQFSLKLSSVTAADTAVYYCARNYGSIYVNYFDYWGQGTLVTVSS
VL: EIVLTQSPATLSLSPGERATLSCSASSSVSYMYWYQQKPGQAPRPLIYRTSNLASGIPARFSGSGSGTDFTLTISSLEPEDFAVYYCQQYHSYPTFGGGTKVEIK
notes: IgG1 kappa
B17: SA301a HC-S56D (antibody, name in Kabat numbering, V domains shown)
VH: QVQLQESGPGLVKPSQTLSLTCTVSGYSITSDYNSHWIRQPPGKGLEWIGYIHYSGDTNYNPSLKSRVTISRDTSKNQFSLKLSSVTAADTAVYYCARNYGSIYVNYFDYWGQGTLVTVSS
VL: EIVLTQSPATLSLSPGERATLSCSASSSVSYMYWYQQKPGQAPRPLIYRTSNLASGIPARFSGSGSGTDFTLTISSLEPEDFAVYYCQQYHSYPTFGGGTKVEIK
notes: IgG1 kappa
B18: SA301a HC-N58Q (antibody, name in Kabat numbering, V domains shown)
VH: QVQLQESGPGLVKPSQTLSLTCTVSGYSITSDYNSHWIRQPPGKGLEWIGYIHYSGSTQYNPSLKSRVTISRDTSKNQFSLKLSSVTAADTAVYYCARNYGSIYVNYFDYWGQGTLVTVSS
VL: EIVLTQSPATLSLSPGERATLSCSASSSVSYMYWYQQKPGQAPRPLIYRTSNLASGIPARFSGSGSGTDFTLTISSLEPEDFAVYYCQQYHSYPTFGGGTKVEIK
notes: IgG1 kappa
B19: SA301a HC-S54D (antibody, name in Kabat numbering, V domains shown)
VH: QVQLQESGPGLVKPSQTLSLTCTVSGYSITSDYNSHWIRQPPGKGLEWIGYIHYDGSTNYNPSLKSRVTISRDTSKNQFSLKLSSVTAADTAVYYCARNYGSIYVNYFDYWGQGTLVTVSS
VL: EIVLTQSPATLSLSPGERATLSCSASSSVSYMYWYQQKPGQAPRPLIYRTSNLASGIPARFSGSGSGTDFTLTISSLEPEDFAVYYCQQYHSYPTFGGGTKVEIK
notes: IgG1 kappa
B20: SA301a HC-N58Y (antibody, name in Kabat numbering, V domains shown)
VH: QVQLQESGPGLVKPSQTLSLTCTVSGYSITSDYNSHWIRQPPGKGLEWIGYIHYSGSTYYNPSLKSRVTISRDTSKNQFSLKLSSVTAADTAVYYCARNYGSIYVNYFDYWGQGTLVTVSS
VL: EIVLTQSPATLSLSPGERATLSCSASSSVSYMYWYQQKPGQAPRPLIYRTSNLASGIPARFSGSGSGTDFTLTISSLEPEDFAVYYCQQYHSYPTFGGGTKVEIK
notes: IgG1 kappa
B21: SA301a HC-N58V (antibody, name in Kabat numbering, V domains shown)
VH: QVQLQESGPGLVKPSQTLSLTCTVSGYSITSDYNSHWIRQPPGKGLEWIGYIHYSGSTVYNPSLKSRVTISRDTSKNQFSLKLSSVTAADTAVYYCARNYGSIYVNYFDYWGQGTLVTVSS
VL: EIVLTQSPATLSLSPGERATLSCSASSSVSYMYWYQQKPGQAPRPLIYRTSNLASGIPARFSGSGSGTDFTLTISSLEPEDFAVYYCQQYHSYPTFGGGTKVEIK
notes: IgG1 kappa
B22: SA301a HC-S56E (antibody, name in Kabat numbering, V domains shown)
VH: QVQLQESGPGLVKPSQTLSLTCTVSGYSITSDYNSHWIRQPPGKGLEWIGYIHYSGETNYNPSLKSRVTISRDTSKNQFSLKLSSVTAADTAVYYCARNYGSIYVNYFDYWGQGTLVTVSS
VL: EIVLTQSPATLSLSPGERATLSCSASSSVSYMYWYQQKPGQAPRPLIYRTSNLASGIPARFSGSGSGTDFTLTISSLEPEDFAVYYCQQYHSYPTFGGGTKVEIK
notes: IgG1 kappa

What follows are binders tested against T1, human IL-18BP (assay: BLI, apparent KD).

Binder	Kd [nM]
B1	2.33
B2	0.31
B3	0.34
B4	0.2
B5	0.27
B6	4.51
B7	0.47
B8	2.5
B9	0.11
B10	1.37
B11	0.46
B12	0.56
B13	0.23
B14	4.39
B15	0.41
B16	0.64
B17	0.62
B18	0.62
B19	0.22
B20	0.41
B21	0.44
B22	0.48
